Experiments:
Assay in all cases: BLI
[1] = target: T1, monomeric human Fc-fused SARS-CoV-2_RBD-SD1 (SARS-CoV-2)
[2] = target: T1, monomeric human Fc-fused …; remark: listed apart in the source
[3] = target: T2, Mouse IgG1 Fc-fused SARS-CoV-2 RBD (SARS-CoV-2, UniProt P0DTC2)
[4] = target: T2, Mouse IgG1 Fc-fused SARS-CoV-2 RBD; remark: listed apart in the source

Binder | Kd [1] | koff [2] | Kd [3] | koff [4]
humVHH (VHH) VHH: EVQLVESGGGLVQPGGSLRLSCAASGRTFSEYAMGWFRQAPGKEREFVATISWSGGSTYYTDSVKGRFTISRDNAKNTVYLQMNSLRPEDTAVYYCAAAGLGTVVSEWDYDYDYWGQGTLVTVSS | 63 nM | 0.088 s⁻¹ |  | 
humVHH_S56A/LALAPG-Fc (Fc fusion) EVQLVESGGGLVQPGGSLRLSCAASGRTFSEYAMGWFRQAPGKEREFVATISWSGGATYYTDSVKGRFTISRDNAKNTVYLQMNSLRPEDTAVYYCAAAGLGTVVSEWDYDYDYWGQGTLVTVSS |  |  | 0.0477 nM | 8.16e-05 s⁻¹
humVHH_S56A (VHH) VHH: EVQLVESGGGLVQPGGSLRLSCAASGRTFSEYAMGWFRQAPGKEREFVATISWSGGATYYTDSVKGRFTISRDNAKNTVYLQMNSLRPEDTAVYYCAAAGLGTVVSEWDYDYDYWGQGTLVTVSS | 8.3 nM | 0.023 s⁻¹ |  | 
